Test results published in the supplement of paper PMC10567573.
± gives the standard deviation.

Assay: protein stability index of a GFP-peptide fusion (GPS, HEK-293T) (PSI 1-6); higher = more stable
[1] = treatment: DMSO, c terminus: a fixed tail appended
[2] = treatment: MLN4924 1 uM, 8 h, c terminus: a fixed tail appended
[3] = treatment: DMSO, c terminus: native
[4] = treatment: MLN4924 1 uM, 8 h, c terminus: native
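Note: 24-mer peptide tiles fused after GFP, lentivirally expressed, FACS-sorted into six equal bins by GFP/DsRed ratio, decoded by Illumina sequencing, PSI is the read-weighted mean bin number.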

Sequence | protein stability index [1] | protein stability index [2] | protein stability index [3] | protein stability index [4]
WHLKQSPASPERDYSPYYKTIEEL [KRT13] | 3.26 ± 0.094 | 3.29 ± 0.26 | – | –
IDEVLLHQDVDLVCINLPPPLTRQ [GFOD1] | 2.83 ± 0.38 | 2.98 ± 0.43 | – | –
IQSWDINSRRNINYRSFEPILRLL [ZER1] | 2.31 ± 0.099 | 2.41 ± 0.21 | – | –
AQKQRLERALDATEVPFSITTDNL [TEKT4] | 4.72 ± 0.29 | 4.77 ± 0.22 | – | –
GTMGMAPLGNTPMMNQSMMGMNMN [CLINT1] | 3.39 ± 0.45 | 3.52 ± 0.21 | – | –
KYLVEHKADLEVSNRHGHTCLMIS [FEM1C] | 2.53 ± 0.12 | 2.67 ± 0.23 | – | –
HVAPLLAAAGLHASPMSADRVVAF [NR2F2] | 2.27 ± 0.43 | 2.24 ± 0.27 | – | –
VRSTETVERDNMEEDNVEESEEEG [HDAC6] | 5.57 ± 0.45 | 5.72 ± 0.24 | – | –
GAIFCPPCYDVRYAPSCAKCKKKI [PDLIM7] | 3.16 ± 0.24 | 3.45 ± 0.34 | – | –
EGASSDNGCEVKNRKSILSRHLNS [PHTF1] | 4.74 ± 0.46 | 4.68 ± 0.16 | – | –
SPIKPGDIKRGIPNYEFKLGKITF [UFD1] | 2.65 ± 0.34 | 2.52 ± 0.39 | – | –
QQVKCIITEEKVCMVCKKKIGNSA [VPS39] | 3.24 ± 0.4 | 3.6 ± 0.66 | – | –
GDDSDLSEGFESDSSHDSARASEG [SMG5] | 5.47 ± 0.3 | 5.48 ± 0.13 | – | –
FFKGGGSSKSRAAPSPQEALVRLR [CHMP4C] | 3.26 ± 0.053 | 3.33 ± 0.052 | – | –
DENYNLLPHGVNFQDAIFPDTQEN [CCDC3] | 4.92 ± 0.29 | 5.06 ± 0.21 | – | –
LLELQSQQACTHTKETEQLRSQLQ [CCDC89] | 4.06 ± 0.32 | 4.29 ± 0.25 | – | –
MGNILTCCINSHCGWPRGKDAPCY [DRICH1] | 2.44 ± 0.39 | 2.08 ± 0.15 | – | –
LFGFSAVSIMYLVLVLAVQVHAWQ [JAGN1] | 3.8 ± 0.15 | 2.97 ± 0.39 | – | –
KASGKNKHFKVQLVDNVYCIGQRR [NCK2] | 3.06 ± 0.23 | 3.2 ± 0.16 | – | –
DMFDADGGGDISVKELGTVMRMLG [TNNC2] | – | 2.58 ± 0.16 | – | –
QPPPQEEPGTPSSSPDDKLLTSPR [KLHL14] | 5.52 ± 0.16 | 5.48 ± 0.15 | – | –
VSKVVKGGSSGKGTTLRGRSDADL [OAS1] | 4.36 ± 0.11 | 4.48 ± 0.15 | – | –
MYLKQLAEYRKYIHSRKCRCLVM [RHOBTB3] | – | – | 1.95 ± 0.5 | 2 ± 0.33

Sequence | protein stability index [1] | protein stability index [2] | protein stability index [3] | protein stability index [4]
LNYLVDPVTICCGHSFCRPCLCLS [TRIM43] | 2.26 ± 0.34 | 2.42 ± 0.23 | – | –
ITQSWQVSVRVQPRGRAHLLPNPY [C22orf15] | 2.59 ± 0.83 | 3.36 ± 0.85 | – | –
QRPVSRQVTCLRTQVLEDSEDSFC [TRAF3IP2] | 4.68 ± 0.19 | 4.53 ± 0.14 | – | –
NKPAVKLLYNRSNNKYSYTSNSDD [KCTD10] | 4.1 ± 0.1 | 4.03 ± 0.31 | – | –
WEQTHLTYRIENYTPDLPRADVDH [MMP1] | 3.95 ± 0.31 | 3.53 ± 0.3 | – | –
DEQEKGIVTKFYQLSATGQKLYVR [FAN1] | 2.92 ± 0.22 | 2.94 ± 0.54 | – | –
AKQKLDFFIRTSDSFDKFDFCEPS [PCMTD2] | 2.87 ± 0.26 | 3.02 ± 0.47 | – | –
IRMIVRGTLGSCSSSSECLEDSTM [PLK2] | 2.3 ± 0.3 | 2.25 ± 0.12 | – | –
LPDGCQPLQLLREMRQALQALLKE [CBY2] | 2.45 ± 0.35 | 2.51 ± 0.33 | – | –
DGRQLRKMLRKEAAARCVVLDCRP [DUSP5] | 2.69 ± 0.24 | 3.07 ± 0.23 | – | –
VTLGGVLRQQLVVSKELRMYDEKA [KLHL13] | 2.95 ± 0.25 | 3.02 ± 0.41 | – | –
QDEEMLELPAPAEVAAKNQSLEGD [MLH1] | 5.37 ± 0.59 | 5.66 ± 0.17 | – | –
QSLDEPGGATFLLTAKQLIKSIVE [TRIM63] | 2.6 ± 0.33 | 2.32 ± 0.37 | – | –
REVKVLLDQLRFPNGVQLSPAEDF [APMAP] | 2.97 ± 0.4 | 2.95 ± 0.5 | – | –
RYDPEPKSKWDEEWDKNKSAFPFS [CLINT1] | 3.84 ± 0.36 | 3.89 ± 0.21 | – | –
NLEKQLICPICLEMFTKPVVILPC [TRIM55] | 2.41 ± 0.34 | 2.33 ± 0.22 | – | –
DGDIPNIPAEENASTSTPSSTLVR [FAM189A2] | 5.47 ± 0.2 | 5.55 ± 0.15 | – | –
IFTKKLPHPDLPAEEKEQLLHNDE [USP39] | 5 ± 0.16 | 5.03 ± 0.1 | – | –
TVKFANNPSQKTGQALLTHLYQSS [ELAVL3] | 3.01 ± 0.22 | 3.03 ± 0.38 | – | –
QELELVLMISENNFLFRNAASTLT [ANKRD40] | 2.91 ± 0.82 | 3.28 ± 0.74 | – | –
AYVSPEILNTTGTYSGKAADVWSL [TRIB1] | 2.51 ± 0.3 | 2.37 ± 0.52 | – | –
KWDAENAIQQMGGQWLGGRQIRTN [TIA1] | 3.51 ± 0.28 | 3.56 ± 0.3 | – | –
PSLDSRQRLDYEREIQPTAILSLD [SPRY1] | 4.39 ± 0.16 | 4.53 ± 0.22 | – | –

Sequence | protein stability index [1] | protein stability index [2] | protein stability index [3] | protein stability index [4]
APAPSQVKSKAKKTVDKHSDEYKI [CEBPB] | 5.36 ± 0.17 | 5.37 ± 0.25 | – | –
NPEEYNLDEPNAESDYTYSSSYEQ [SRPK2] | 5.52 ± 0.19 | 5.46 ± 0.25 | – | –
RLVLDAALALQARGCSVKIWTAHY [ALG2] | 2.87 ± 0.68 | 2.69 ± 0.72 | – | –
SSSGDLADLENEDIFPELDDILYH [DLC1] | 4.77 ± 0.24 | 4.76 ± 0.2 | – | –
LLGAVNFFVSSINTLVTKTMEDTL [ARFIP2] | 3.13 ± 0.21 | 3.07 ± 0.26 | – | –
MINSTSTQPPDESCSQNLLITQQI [P2RY14] | 4.24 ± 0.16 | 4.26 ± 0.096 | – | –
RNEGVSSVLLGASNADQLMENIGA [KCNAB2] | 4.25 ± 0.09 | 4.42 ± 0.12 | – | –
ERQLKVMASDHREALLDRESENAS [LRRC45] | 5.41 ± 0.3 | 5.33 ± 0.18 | – | –
ADLLEEEVIISWSEKASKKYVSKE [EIF5] | 3.98 ± 0.31 | 4.16 ± 0.41 | – | –
GIFQAMCLLICAEMYQVSRLQHIC [RHOBTB3] | 2.99 ± 0.59 | 3.09 ± 0.34 | – | –
DYFPSEDFYRCGYCKNESGSRSNG [ATE1] | 3.07 ± 0.32 | 3.35 ± 0.49 | – | –
QHLPAQEQWDRLLVLYPTSLAIFS [PLEKHN1] | 2.55 ± 0.53 | 2.6 ± 0.59 | – | –
KHSNSPPLVTPPQSPVSPQPPAIT [SMTNL2] | 4.82 ± 0.15 | 4.92 ± 0.15 | – | –
FNMMEQKKRVSMILQSPAFCEELE [ADD1] | 3.27 ± 0.088 | 3.4 ± 0.11 | – | –
LYPSLNVTSFDSVVPEKLDDLVPK [ALG2] | 4.32 ± 0.14 | 4.42 ± 0.11 | – | –
IQNSDNDLPVVQGSSSFSLKGYPS [TRIM29] | 3.91 ± 0.29 | 4.07 ± 0.2 | – | –
PPLPGDMSTGPIAESWCYTQVKVV [SPOPL] | 2.27 ± 0.15 | 2.38 ± 0.33 | – | –
YTMLLGRPPFETTNLKETYRCIRE [PLK2] | 2.32 ± 0.3 | 2.4 ± 0.22 | – | –
SKSCMRAVLEYLYTGMFTSSPDLD [RHOBTB2] | 2.28 ± 0.039 | 2.05 ± 0.49 | – | –
NSNLEEPLNPKPHKKKSPGEKPHR [ZNF449] | 5.47 ± 0.23 | 5.45 ± 0.2 | – | –
AKYPHDVVNHLSCDEARNHYGGVV [SPACA9] | 3.5 ± 0.27 | 3.58 ± 0.082 | – | –
TLVSSGSGTMGAAKVTGEVLDILT [FLOT1] | 2.97 ± 0.44 | 2.91 ± 0.49 | – | –
LSSSEGLEPGSADPLANGCQGVSE [PSD2] | 5.39 ± 0.24 | 5.49 ± 0.12 | – | –

Sequence | protein stability index [1] | protein stability index [2] | protein stability index [3] | protein stability index [4]
CCIDWTHVTDPLIGCKKPVSASGK [SMG5] | 3.05 ± 0.21 | 3.09 ± 0.18 | – | –
KMEIYQKENKDVIQKNKLKLTREQ [MNAT1] | 3.89 ± 0.41 | 4.16 ± 0.34 | – | –
LGSQIKSLCNLEESITSAGRDDLE [FAM98B] | 4.63 ± 0.3 | 4.74 ± 0.17 | – | –
RLFTQLKFGVVQTSVEECSQKGCL [CLCN6] | 2.29 ± 0.46 | 2.61 ± 0.27 | – | –
NGIHVCMVFEVLGHHLLKWIIKSN [SRPK2] | 3.01 ± 0.14 | 2.96 ± 0.29 | – | –
RFYRSPEVLLGTPYDLAIDMWSLG [DYRK1B] | 1.78 ± 0.42 | 2.29 ± 0.35 | – | –
QQLLHHARNGNAEEVRQLLETMAR [OSBPL1A] | 3.15 ± 0.38 | 3.78 ± 0.3 | – | –
ECFMCSDCGLNLKQRGYFFLDERL [PDLIM4] | 2.26 ± 0.32 | 2.08 ± 0.34 | – | –
TCPQCHRSLILDDRGLRGFPKNRV [TRIM9] | 2.74 ± 0.22 | 3.16 ± 0.41 | – | –
YTYEKLLWTTSRVLKVLSVCSSNK [CTNNB1] | 2.47 ± 0.36 | 2.22 ± 0.43 | – | –
NGAGVTVLRREISELRTKVQEQQK [FBXO28] | 4.11 ± 0.23 | 4.21 ± 0.13 | – | –
HQRSSSESYTQSFQSRKPFFSWW [PI4K2A] | – | – | 3.41 ± 0.27 | 3.7 ± 0.3
RHIFMGYLESETETTEAIDDEGWL [ACSBG2] | 4.08 ± 0.27 | 4.13 ± 0.16 | – | –
FKPKLYKGDRGLPLEGSAKGKVQA [RBBP5] | 3.96 ± 0.44 | 3.98 ± 0.27 | – | –
LKSELGRKWHKASNYIFVAIFWIV [P2RY14] | 2.24 ± 0.61 | 2.31 ± 0.19 | – | –
RGSDLKVLEVTEESIDFDQGELAD [FBXO33] | 5.42 ± 0.14 | 5.519 ± 0.053 | – | –
DLSDNRNEDPLVLLAWRCTKLSLL [FBXO33] | 2.54 ± 0.38 | 2.22 ± 0.24 | – | –
EDEDEDEDEDEDKEEEEEDCSEEY [TAF7L] | 5.65 ± 0.31 | 5.58 ± 0.13 | – | –
VLIVDWDVHHGQGTQFTFDQDPSV [HDAC6] | 2.32 ± 0.42 | 2.13 ± 0.049 | – | –
MLASVESVPFSFDPNTAAGWLSVS [TRIM35] | 2.31 ± 0.22 | 2.33 ± 0.28 | – | –
